Reference: US20240270821A1, “GIP/GLP1/GCG TRI-RECEPTOR AGONISTS AND USES THEREOF” (priority 2023, published 2024)
Where a chain is given by its changes, count along the chain named.

T1: human GIP receptor (human) (UniProt P48546)
T1 sequence (looked up): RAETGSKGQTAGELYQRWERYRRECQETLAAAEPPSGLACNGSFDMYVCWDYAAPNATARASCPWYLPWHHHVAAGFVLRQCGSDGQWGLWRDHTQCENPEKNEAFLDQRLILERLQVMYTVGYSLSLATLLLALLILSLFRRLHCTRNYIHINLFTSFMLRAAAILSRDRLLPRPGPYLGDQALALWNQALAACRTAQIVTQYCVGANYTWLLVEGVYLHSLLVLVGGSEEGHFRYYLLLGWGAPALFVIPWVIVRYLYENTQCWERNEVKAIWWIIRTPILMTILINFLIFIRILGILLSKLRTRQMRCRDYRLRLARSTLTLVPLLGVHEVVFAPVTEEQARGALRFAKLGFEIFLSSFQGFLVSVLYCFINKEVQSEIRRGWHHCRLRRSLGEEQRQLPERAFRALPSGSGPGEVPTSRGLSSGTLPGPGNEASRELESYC

B1: Example 445 (peptide)
chain: YXQGTXTSDXSIXLDKKAQXAFIEYLEEGGPSSGAPPPE
modifications: synthetic construct; SITE 2: note = 2-Aminoisobutyric Acid; SITE 6: note = alpha-methyl-2-fluoro-L-phenylalanine; SITE 10: note = 3-(4-Pyridyl)-L-alanine; SITE 13: note = alpha-methyl-leucine; SITE 17: note = Lysine is chemically modified through conjugation of the epsilon-amino group of the Lysine
B2: Example 464 (peptide)
chain: B1 chain with S11X, X13L
modifications: synthetic construct; SITE 2: note = 2-Aminoisobutyric Acid; SITE 6: note = alpha-methyl-2-fluoro-L-phenylalanine; SITE 10: note = 3-(4-Pyridyl)-L-alanine; SITE 11: note = alpha-methyl-L-serine; SITE 17: note = Lysine is chemically modified through conjugation of the epsilon-amino group of the Lysine
B3: Example 446 (peptide)
chain: B1 chain with E27S, E39S
modifications: synthetic construct; SITE 2: note = 2-Aminoisobutyric Acid; SITE 6: note = alpha-methyl-2-fluoro-L-phenylalanine; SITE 10: note = 3-(4-Pyridyl)-L-alanine; SITE 13: note = alpha-methyl-leucine; SITE 17: note = Lysine is chemically modified through conjugation of the epsilon-amino group of the Lysine
B4: Example 462 (peptide)
chain: YXQGTXTSDXXIXLDXKAQXXFIEXLIEGGPSSGEPPPEEG
modifications: synthetic construct; SITE 2: note = 2-Aminoisobutyric Acid; SITE 6: note = alpha-methyl-2-fluoro-L-phenylalanine; SITE 10: note = 3-(4-Pyridyl)-L-alanine; SITE 11: note = alpha-methyl-L-serine; SITE 13: note = alpha-methyl-leucine; SITE 16: note = L-ornithine; SITE 17: note = Lysine is chemically mo
B5: Example 447 (peptide)
chain: YXQGTXTSDXXEXLDXKAQXXFIEXLIEGGPSSGEPPPE
modifications: synthetic construct; SITE 2: note = 2-Aminoisobutyric Acid; SITE 6: note = alpha-methyl-2-fluoro-L-phenylalanine; SITE 10: note = 3-(4-Pyridyl)-L-alanine; SITE 11: note = alpha-methyl-L-serine; SITE 13: note = alpha-methyl-leucine; SITE 16: note = L-ornithine; SITE 17: note = Lysine is chemically mo
B6: Example 449 (peptide)
chain: B5 chain with E12I, X21N, X25Y
modifications: synthetic construct; SITE 2: note = 2-Aminoisobutyric Acid; SITE 6: note = alpha-methyl-2-fluoro-L-phenylalanine; SITE 10: note = 3-(4-Pyridyl)-L-alanine; SITE 11: note = alpha-methyl-L-serine; SITE 13: note = alpha-methyl-leucine; SITE 16: note = L-ornithine; SITE 17: note = Lysine is chemically mo
B7: Example 450 (peptide)
chain: B5 chain with E12I, X21N, I27Q
modifications: synthetic construct; SITE 2: note = 2-Aminoisobutyric Acid; SITE 6: note = alpha-methyl-2-fluoro-L-phenylalanine; SITE 10: note = 3-(4-Pyridyl)-L-alanine; SITE 11: note = alpha-methyl-L-serine; SITE 13: note = alpha-methyl-leucine; SITE 16: note = L-ornithine; SITE 17: note = Lysine is chemically mo
B8: Example 457 (peptide)
chain: B5 chain with E12I, X21T
modifications: synthetic construct; SITE 2: note = 2-Aminoisobutyric Acid; SITE 6: note = alpha-methyl-2-fluoro-L-phenylalanine; SITE 10: note = 3-(4-Pyridyl)-L-alanine; SITE 11: note = alpha-methyl-L-serine; SITE 13: note = alpha-methyl-leucine; SITE 16: note = L-ornithine; SITE 17: note = Lysine is chemically mo
B9: Example 453 (peptide)
chain: B5 chain with E12I
modifications: synthetic construct; SITE 2: note = 2-Aminoisobutyric Acid; SITE 6: note = alpha-methyl-2-fluoro-L-phenylalanine; SITE 10: note = 3-(4-Pyridyl)-L-alanine; SITE 11: note = alpha-methyl-L-serine; SITE 13: note = alpha-methyl-leucine; SITE 16: note = L-ornithine; SITE 17: note = Lysine is chemically mo
B10: Example 460 (peptide)
chain: B5 chain with E12I, X25Y, I27L
modifications: synthetic construct; SITE 2: note = 2-Aminoisobutyric Acid; SITE 6: note = alpha-methyl-2-fluoro-L-phenylalanine; SITE 10: note = 3-(4-Pyridyl)-L-alanine; SITE 11: note = alpha-methyl-L-serine; SITE 13: note = alpha-methyl-leucine; SITE 16: note = L-ornithine; SITE 17: note = Lysine is chemically mo

These binders were tested against human glucagon receptor (human) (UniProt P47871) (assay: cell-based or functional assay).
Sequence of human glucagon receptor (human) (P47871 26-477): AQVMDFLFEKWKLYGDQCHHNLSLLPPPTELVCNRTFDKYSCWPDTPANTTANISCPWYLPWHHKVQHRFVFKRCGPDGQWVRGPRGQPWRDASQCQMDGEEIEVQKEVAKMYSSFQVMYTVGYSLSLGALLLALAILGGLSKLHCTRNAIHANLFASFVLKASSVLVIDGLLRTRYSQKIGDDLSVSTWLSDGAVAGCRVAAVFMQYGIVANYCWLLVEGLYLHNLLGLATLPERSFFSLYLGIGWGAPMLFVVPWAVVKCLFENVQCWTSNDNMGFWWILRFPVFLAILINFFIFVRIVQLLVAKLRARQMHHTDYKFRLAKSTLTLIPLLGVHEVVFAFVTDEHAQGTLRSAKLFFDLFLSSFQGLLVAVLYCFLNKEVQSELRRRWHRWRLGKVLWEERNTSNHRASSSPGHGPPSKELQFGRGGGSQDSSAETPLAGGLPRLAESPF
B1 gave a Relative cAMP EC50 of 10.1 nM and a cAMP Rel EC50, nM (1% HSA) of 448 nM.
Work on B2 yielded a Relative cAMP EC50, nM (0.1% casein) of 1.25 nM and a cAMP Rel EC50 (receptor-expressing HEK-293 cells, 1% HSA) of 194 nM.
Work on B3 yielded a Relative cAMP EC50 of 8.34 nM and a cAMP Rel EC50, nM (1% HSA) of 516 nM.
With B4 the Relative cAMP EC50, nM (0.1% casein) was 1.69 nM and the cAMP Rel EC50 (receptor-expressing HEK-293 cells, 1% HSA) was 183 nM.
B5 showed a Relative cAMP EC50, nM (0.1% casein) of 9.71 nM and a cAMP Rel EC50 (receptor-expressing HEK-293 cells, 1% HSA) of 1090 nM.
In the case of B6, the Relative cAMP EC50, nM (0.1% casein) is reported as 11.5 nM and the cAMP Rel EC50 (receptor-expressing HEK-293 cells, 1% HSA) is reported as 424 nM.
For B7, the Relative cAMP EC50, nM (0.1% casein) was 4.84 nM and the cAMP Rel EC50 (receptor-expressing HEK-293 cells, 1% HSA) was 553 nM.
B8 was tested, and the Relative cAMP EC50, nM (0.1% casein) was 2.86 nM and the cAMP Rel EC50 (receptor-expressing HEK-293 cells, 1% HSA) was 333 nM.
B9 gave a Relative cAMP EC50, nM (0.1% casein) of 7.37 nM and a cAMP Rel EC50 (receptor-expressing HEK-293 cells, 1% HSA) of 261 nM.
For B10, the Relative cAMP EC50, nM (0.1% casein) was 1.89 nM and the cAMP Rel EC50 (receptor-expressing HEK-293 cells, 1% HSA) was 142 nM.

Each binder was assayed against hGLP-1R (Homo sapiens, UniProt P43220) (assay: cell-based or functional assay).
Sequence of hGLP-1R (P43220 24-463): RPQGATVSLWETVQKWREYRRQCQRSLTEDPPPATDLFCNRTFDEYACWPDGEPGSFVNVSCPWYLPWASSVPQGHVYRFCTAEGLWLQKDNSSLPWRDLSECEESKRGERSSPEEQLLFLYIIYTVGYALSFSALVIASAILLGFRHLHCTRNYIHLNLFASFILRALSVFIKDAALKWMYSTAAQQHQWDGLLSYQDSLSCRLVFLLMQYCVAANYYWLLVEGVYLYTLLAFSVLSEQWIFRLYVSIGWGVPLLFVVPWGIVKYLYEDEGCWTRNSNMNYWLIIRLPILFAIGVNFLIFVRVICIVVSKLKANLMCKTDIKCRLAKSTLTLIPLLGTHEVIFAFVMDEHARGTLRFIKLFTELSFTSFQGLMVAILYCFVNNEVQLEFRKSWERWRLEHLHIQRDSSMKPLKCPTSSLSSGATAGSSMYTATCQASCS
Binder B1 has a Relative cAMP EC50 of 0.731 nM and a cAMP Rel EC50, nM (1% HSA) of 23.2 nM.
For B2, the Relative cAMP EC50, nM (0.1% casein) was 0.466 nM and the cAMP Rel EC50 (receptor-expressing HEK-293 cells, 1% HSA) was 45.5 nM.
B3 gave a Relative cAMP EC50 of 0.696 nM and a cAMP Rel EC50, nM (1% HSA) of 24.5 nM.
B4 gave a Relative cAMP EC50, nM (0.1% casein) of 0.204 nM and a cAMP Rel EC50 (receptor-expressing HEK-293 cells, 1% HSA) of 12.9 nM.
Binder B5 has a Relative cAMP EC50, nM (0.1% casein) of 0.214 nM and a cAMP Rel EC50 (receptor-expressing HEK-293 cells, 1% HSA) of 11.3 nM.
B6 showed a Relative cAMP EC50, nM (0.1% casein) of 0.568 nM and a cAMP Rel EC50 (receptor-expressing HEK-293 cells, 1% HSA) of 18.9 nM.
B7 was tested, and the Relative cAMP EC50, nM (0.1% casein) was 0.43 nM and the cAMP Rel EC50 (receptor-expressing HEK-293 cells, 1% HSA) was 18.4 nM.
In the case of B8, the Relative cAMP EC50, nM (0.1% casein) is reported as 0.226 nM and the cAMP Rel EC50 (receptor-expressing HEK-293 cells, 1% HSA) is reported as 11.7 nM.
Binder B9 has a Relative cAMP EC50, nM (0.1% casein) of 0.374 nM and a cAMP Rel EC50 (receptor-expressing HEK-293 cells, 1% HSA) of 20.6 nM.
Binder B10 has a Relative cAMP EC50, nM (0.1% casein) of 0.636 nM and a cAMP Rel EC50 (receptor-expressing HEK-293 cells, 1% HSA) of 31.1 nM.

These binders were tested against T1, human GIP receptor (human) (assay: cell-based or functional assay).
With B1 the Relative cAMP EC50 was 0.0206 nM and the cAMP Rel EC50, nM (1% HSA) was 2.41 nM.
For B2, the Relative cAMP EC50, nM (0.1% casein) was 0.072 nM and the cAMP Rel EC50 (receptor-expressing HEK-293 cells, 1% HSA) was 19.9 nM.
B3 showed a Relative cAMP EC50 of 0.0351 nM and a cAMP Rel EC50, nM (1% HSA) of 3.01 nM.
With B4 the Relative cAMP EC50, nM (0.1% casein) was 0.0148 nM and the cAMP Rel EC50 (receptor-expressing HEK-293 cells, 1% HSA) was 1.62 nM.
B5 showed a Relative cAMP EC50, nM (0.1% casein) of 0.0177 nM and a cAMP Rel EC50 (receptor-expressing HEK-293 cells, 1% HSA) of 1.81 nM.
B6 showed a Relative cAMP EC50, nM (0.1% casein) of 0.0205 nM and a cAMP Rel EC50 (receptor-expressing HEK-293 cells, 1% HSA) of 1.66 nM.
B7 was tested, and the Relative cAMP EC50, nM (0.1% casein) was 0.0448 nM and the cAMP Rel EC50 (receptor-expressing HEK-293 cells, 1% HSA) was 3.75 nM.
B8 showed a Relative cAMP EC50, nM (0.1% casein) of 0.00918 nM and a cAMP Rel EC50 (receptor-expressing HEK-293 cells, 1% HSA) of 0.881 nM.
B9 gave a Relative cAMP EC50, nM (0.1% casein) of 0.0184 nM and a cAMP Rel EC50 (receptor-expressing HEK-293 cells, 1% HSA) of 1.95 nM.
B10 gave a Relative cAMP EC50, nM (0.1% casein) of 0.0624 nM and a cAMP Rel EC50 (receptor-expressing HEK-293 cells, 1% HSA) of 8.93 nM.
